This passage reports Kd results from patent US20200317768A1 (published 2020).

Common to all, as to assay: SPR (BIACORE), antibody captured, FcγR analyte
(In general: In SPR one partner is held on a chip, and binding of the other changes the refractive index at the surface.)

In assay [1] the target is T1, cynomolgus monkey FcγRIIb extracellular domain, C-terminal His-tag (cynomolgus monkey).
T1 construct: also called cyno FcγRIIb; cynoFcγRIIb; not shown: His-tag added to C-terminus
T1 chain: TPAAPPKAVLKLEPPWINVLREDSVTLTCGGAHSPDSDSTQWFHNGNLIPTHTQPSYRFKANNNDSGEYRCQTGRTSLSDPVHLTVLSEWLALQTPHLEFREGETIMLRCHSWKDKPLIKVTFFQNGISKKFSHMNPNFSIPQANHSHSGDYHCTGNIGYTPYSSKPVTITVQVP
How it is done:
(§1) The kinetic analysis of interactions between these antibodies and FcγR was carried out using BIACORE® T200 or BIACORE® 4000 (GE Healthcare). HBS-EP+ (GE Healthcare) was used as the running buffer, and the measurement temperature was set to 25° C. A chip produced by immobilizing Protein A. Protein A/G or mouse anti-human IgG kappa light chain (BD Biosciences) onto a Series S Sensor Chip CM4 or CM5 (GE Healthcare) by the amine-coupling method was used. […] After the measurement, the antibody captured on the chip was washed off by allowing reaction with 10 mM glycine-HCl, pH1.5 and 25 mM NaOH so that the chip was regenerated and used repeatedly. The sensorgrams obtained as measurement results were analyzed by the 1:1 Langmuir binding model using the BIACORE® Evaluation Software to calculate the binding rate constant ka (L/mol/s) and dissociation rate constant kd (l/s), and the dissociation constant KD (mol/L) was calculated from these values. […] Regarding such interactions, KD values were calculated using the following 1:1 binding model described in BIACORE® T100 Software Handbook BR1006-48 Edition AE.
(§2) The behavior of interacting molecules according to the 1:1 binding model on BIACORE® can be described by Equation 1: Req=C·R max/(KD+C)+RI, wherein, Req is a plot of steady-state binding levels to analyte concentration. C is concentration, RI is bulk refractive index contribution in the sample, and Rmax is analyte binding capacity of the surface. When this equation is rearranged, KD can be expressed as Equation 2: KD=C·Rmax/(Req−RI)−C. KD can be calculated by substituting the values of Rmax, RI, and C into Equation 1 or Equation 2. From the current measurement conditions, RI=0, C=2 μmol/L can be used.

Assay [2] concerns the target T2, cynomolgus monkey FcγRIIIaS extracellular domain, C-terminal His-tag (cynomolgus monkey, UniProt A3RFZ7 21-206 (rhesus entry)).
T2 construct: also called cyno FcγRIIIaS; cynoFcγRIIIaS; not shown: His-tag added to C-terminus
Here is the method: as §1, §2

Assay [3] addresses T3, human FcγRIIaH extracellular domain, C-terminal His-tag (human, UniProt P12318 34-217).
T3 construct: also called human FcγRIIa (type H); FcgRIIaH; not shown: His-tag added to C-terminus
T3 sequence: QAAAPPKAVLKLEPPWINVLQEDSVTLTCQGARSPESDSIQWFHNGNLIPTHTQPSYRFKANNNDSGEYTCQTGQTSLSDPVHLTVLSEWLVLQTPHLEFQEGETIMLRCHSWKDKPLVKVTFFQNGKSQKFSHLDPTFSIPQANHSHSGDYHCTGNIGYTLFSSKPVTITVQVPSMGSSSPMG
How it is done: as §1, §2

For assay [4], the target named is T4, cynomolgus monkey FcγRIIa2 extracellular domain, C-terminal His-tag (cynomolgus monkey).
T4 construct: also called cyno FcγRIIa2; cynoFcgRIIa2; not shown: His-tag added to C-terminus
T4 chain: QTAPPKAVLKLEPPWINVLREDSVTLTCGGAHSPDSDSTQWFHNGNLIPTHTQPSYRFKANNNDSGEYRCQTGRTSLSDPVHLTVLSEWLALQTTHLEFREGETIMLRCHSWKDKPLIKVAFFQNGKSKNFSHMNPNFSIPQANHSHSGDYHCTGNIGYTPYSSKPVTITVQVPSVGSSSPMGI

Assay [5] addresses T1, cynomolgus monkey FcγRIIb extracellular ….
Assay [6] concerns the target T2, cynomolgus monkey FcγRIIIaS …. This is another data set of the same source.
For assay [7], the target named is T5, human FcγRIIaR extracellular domain, C-terminal His-tag (human, UniProt P12318 34-217).
T5 construct: also called human FcγRIIa (type R); FcgRIIaR; not shown: His-tag added to C-terminus
T5 chain: T3 sequence with H134R

The target in assay [8] is T6, cynomolgus monkey FcγRIIa3 extracellular domain, C-terminal His-tag (cynomolgus monkey).
T6 construct: also called cyno FcγRIIa3; cynoFcgRIIa3; not shown: His-tag added to C-terminus
T6 chain: T4 chain with K127I, N130K, H133P, Q142R

Assay [9] deals with T7, cynomolgus monkey FcγRIIa1 extracellular domain, C-terminal His-tag (cynomolgus monkey).
T7 construct: also called cyno FcγRIIa1; cynoFcgRIIa1; not shown: His-tag added to C-terminus
T7 chain: T4 chain with T95P, A121T, K127I, S128A, N130K, N135D, Q142R

Assay [10] addresses T3, human FcγRIIaH extracellular domain, …. This is another data set of the same source.

Residue numbers refer to the chain shown, from its start. Names may count otherwise. Like-named read-outs stand apart in the source and are kept apart here.

T2 sequence (A3RFZ7 21-206): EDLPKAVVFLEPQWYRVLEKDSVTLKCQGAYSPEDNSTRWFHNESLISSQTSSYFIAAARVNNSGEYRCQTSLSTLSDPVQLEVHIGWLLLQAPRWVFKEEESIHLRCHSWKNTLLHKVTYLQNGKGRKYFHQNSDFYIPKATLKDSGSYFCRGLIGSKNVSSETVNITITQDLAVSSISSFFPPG

B1: MS_M103205H795-SG1/M103202L889-SK1 (antibody, human IgG1, kappa)
heavy: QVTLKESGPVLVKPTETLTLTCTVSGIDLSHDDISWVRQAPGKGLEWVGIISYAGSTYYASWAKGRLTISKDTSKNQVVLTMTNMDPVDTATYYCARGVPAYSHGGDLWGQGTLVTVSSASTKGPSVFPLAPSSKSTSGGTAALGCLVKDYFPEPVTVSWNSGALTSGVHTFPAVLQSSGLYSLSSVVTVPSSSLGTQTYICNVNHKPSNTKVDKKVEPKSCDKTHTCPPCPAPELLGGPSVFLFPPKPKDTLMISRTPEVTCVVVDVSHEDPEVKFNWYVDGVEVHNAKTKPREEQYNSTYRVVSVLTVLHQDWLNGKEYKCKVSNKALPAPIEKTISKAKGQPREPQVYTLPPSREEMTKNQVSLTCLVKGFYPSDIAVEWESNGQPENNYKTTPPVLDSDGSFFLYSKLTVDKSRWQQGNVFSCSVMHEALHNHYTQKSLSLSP
light: DIVMTQSPATLSLSPGERATLSCTSSQSVYHANWLSWFQQKPGQPPKLLIYWASTLAYGVPSRFSGSGSGTDFTLTISSLQPEDAATYYCAGGYGGGRYAFGQGTKVEIKRTVAAPSVFIFPPSDEQLKSGTASVVCLLNNFYPREAKVQWKVDNALQSGNSQESVTEQDSKDSTYSLSSTLTLSKADYEKHKVYACEVTHQGLSSPVTKSFNRGEC
notes: Parent antibody with SG1 human heavy chain constant region; also called MS1032LO06-SG1
Consider B1, for which the Kd (commonly the free concentration of one partner at which half of the binding sites on the other are occupied at equilibrium, for simple one-to-one binding) in assay [1] amounted to 1800 nM; in assay [2] it was 360 nM; in [3] it was 690 nM; in assay [4], 4700 nM; in [5] it was 1900 nM; in [6] it was 280 nM. For the same molecule, the equilibrium dissociation constant (Kd) in [7] turned out to be 1000 nM; in [8], 8600 nM; in [9] it was 4800 nM; in [10], 890 nM.

B2: M103205H795-MY101 / M103202L889-SK1 (antibody, human IgG1, kappa)
heavy: QVTLKESGPVLVKPTETLTLTCTVSGIDLSHDDISWVRQAPGKGLEWVGIISYAGSTYYASWAKGRLTISKDTSKNQVVLTMTNMDPVDTATYYCARGVPAYSHGGDLWGQGTLVTVSSASTKGPSVFPLAPSSKSTSGGTAALGCLVKDYFPEPVTVSWNSGALTSGVHTFPAVLQSSGLYSLSSVVTVPSSSLGTQTYICNVNHKPSNTKVDKKVEPKSCDKTHTCPPCPAPELLNGPSVFLFPPKPKDTLMISRTPEVTCVVVDVSEEDPEVKFNWYVDGVEVHNAKTKPREEQYNSTYRVVSVLTVLHQDWLNGKEYKCKVSNKALPKPIEKTISKAKGQPREPQVYTLPPSREEMTKNQVSLTCLVKGFYPSDIAVEWESNGQPENNYKTTPMVLDSDGSFFLYSKLTVDKSRWQQGNVFSCSVMHEALHNHYTQKSLSLSP
light: B1 light
notes: CH with G236N/H268E/A330K/P396M against SG1 (EU numbering); also called MS1032LO06-MY101
In the case of B2, the Kd in assay [1] worked out at 350 nM; in [2] it was 3200 nM; in assay [3] it was 490 nM.

B3: M103205H795-MY351 / M103202L889-SK1 (antibody, human IgG1, kappa)
heavy: B2 heavy with E270D, Q313R, M398P, D415K
light: B1 light
notes: CH with G236N/H268D/Q311R/A330K/D413K against SG1 (EU numbering); also called MS1032LO06-MY351
On to B3, for which the results for the Kd in assay [1], in assay [2] and in [3] were 350 nM, 5200 nM and 1000 nM, respectively.

B4: M103205H795-MY201 / M103202L889-SK1 (antibody, human IgG1, kappa)
heavy: B2 heavy with E270D, M398P
light: B1 light
notes: CH with G236N/H268D/A330K against SG1 (EU numbering); also called MS1032LO06-MY201
Turning to B4, the Kd in [1] came out at 430 nM; in assay [2], 5700 nM; in assay [3], 910 nM.

B5: M103205H795-MY335 / M103202L889-SK1 (antibody, human IgG1, kappa)
heavy: B2 heavy with N238T, E270D, Q313R, M398P, D415K
light: B1 light
notes: CH with G236T/H268D/Q311R/A330K/D413K against SG1 (EU numbering); also called MS1032LO06-MY335
Regarding B5, the Kd turned out to be 650 nM in [1], 1500 nM in assay [2] and 290 nM in assay [3].

B6: M103205H795-MY344 / M103202L889-SK1 (antibody, human IgG1, kappa)
heavy: B2 heavy with E270D, Q297L, Q313R, M398P, D415K
light: B1 light
notes: CH with G236N/H268D/Q295L/Q311R/A330K/D413K against SG1 (EU numbering); also called MS1032LO06-MY344
On to B6, for which the Kd in assay [1] is 310 nM; in assay [2], 4900 nM; in assay [3], 670 nM.

B7: M103205H795-PK2 / M103202L889-SK1 (antibody, human IgG1, kappa)
heavy: B2 heavy with S402R, D415K
light: B1 light
notes: CH with G236N/H268E/A330K/P396M/S400R/D413K against SG1 (EU numbering); also called MS1032LO06-PK2; MS103205H795-PK2
Take B7: the Kd is 380 nM in assay [1], 3900 nM in [2] and 570 nM in [3].

B8: M103205H795-MY205 / M103202L889-SK1 (antibody, human IgG1, kappa)
heavy: B2 heavy with E270D, Q297L, M398P
light: B1 light
notes: CH with G236N/H268D/Q295L/A330K against SG1 (EU numbering); also called MS1032LO06-MY205
As for B8, the Kd is 250 nM in assay [1], 6000 nM in assay [2] and 470 nM in assay [3].
